According to the supplement of paper PMC10065799, “High-throughput profiling of sequence recognition by tyrosine kinases and SH2 domains using bacterial peptide display” (eLife, 2023):

Experiments:
[1] = target: Fes (UniProt P07332); test: phosphorylation enrichment, bacterial display (enrichment ratio); higher = better substrate or ligand; peptides without Tyr show the background
[2] = target: Jak2 (UniProt O60674); test: as above
[3] = test system: c-Src; test: as above
[4] = target: Fyn (UniProt P06241); test: as above
Fyn, sequence (P06241 whole entry, looked up): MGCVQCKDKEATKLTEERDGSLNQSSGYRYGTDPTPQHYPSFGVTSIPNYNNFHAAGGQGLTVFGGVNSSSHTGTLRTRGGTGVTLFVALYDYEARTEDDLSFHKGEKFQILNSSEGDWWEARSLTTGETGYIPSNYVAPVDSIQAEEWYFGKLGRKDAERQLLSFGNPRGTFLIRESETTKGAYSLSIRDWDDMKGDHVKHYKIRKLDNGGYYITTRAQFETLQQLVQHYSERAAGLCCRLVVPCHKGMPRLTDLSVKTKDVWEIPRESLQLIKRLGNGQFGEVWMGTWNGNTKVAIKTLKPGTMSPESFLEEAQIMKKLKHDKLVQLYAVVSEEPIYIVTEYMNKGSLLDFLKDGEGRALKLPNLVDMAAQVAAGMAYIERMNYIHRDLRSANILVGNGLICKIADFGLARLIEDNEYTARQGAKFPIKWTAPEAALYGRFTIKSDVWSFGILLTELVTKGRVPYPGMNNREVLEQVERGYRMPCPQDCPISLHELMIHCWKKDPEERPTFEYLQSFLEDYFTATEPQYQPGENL

[5] = target: FGFR3 (UniProt P22607); test: as above
FGFR3, sequence (P22607 whole entry, looked up): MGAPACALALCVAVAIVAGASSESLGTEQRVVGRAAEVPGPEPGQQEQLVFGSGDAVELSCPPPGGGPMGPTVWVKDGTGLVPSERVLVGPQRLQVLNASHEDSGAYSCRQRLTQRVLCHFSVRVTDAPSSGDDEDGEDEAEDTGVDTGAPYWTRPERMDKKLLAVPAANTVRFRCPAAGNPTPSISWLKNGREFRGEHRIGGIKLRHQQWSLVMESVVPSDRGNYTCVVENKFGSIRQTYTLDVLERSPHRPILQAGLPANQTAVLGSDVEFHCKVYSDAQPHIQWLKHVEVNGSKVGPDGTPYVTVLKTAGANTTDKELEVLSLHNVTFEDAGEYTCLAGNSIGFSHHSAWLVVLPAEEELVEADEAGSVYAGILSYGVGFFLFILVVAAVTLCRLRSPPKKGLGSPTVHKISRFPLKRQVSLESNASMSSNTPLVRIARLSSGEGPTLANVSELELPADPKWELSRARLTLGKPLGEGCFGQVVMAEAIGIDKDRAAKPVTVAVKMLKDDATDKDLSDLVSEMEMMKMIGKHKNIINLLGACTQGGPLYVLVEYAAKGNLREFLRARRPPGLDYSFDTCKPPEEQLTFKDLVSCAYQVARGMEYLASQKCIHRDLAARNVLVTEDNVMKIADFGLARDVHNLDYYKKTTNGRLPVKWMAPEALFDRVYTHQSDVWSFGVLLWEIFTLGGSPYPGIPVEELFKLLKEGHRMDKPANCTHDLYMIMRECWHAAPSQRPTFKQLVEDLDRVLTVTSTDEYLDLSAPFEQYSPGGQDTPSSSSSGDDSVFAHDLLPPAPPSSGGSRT

[6] = test system: c-Abl (mouse); test: as above
[7] = target: EPHB1 (UniProt P54762); test: as above
EPHB1, sequence (P54762 whole entry, looked up): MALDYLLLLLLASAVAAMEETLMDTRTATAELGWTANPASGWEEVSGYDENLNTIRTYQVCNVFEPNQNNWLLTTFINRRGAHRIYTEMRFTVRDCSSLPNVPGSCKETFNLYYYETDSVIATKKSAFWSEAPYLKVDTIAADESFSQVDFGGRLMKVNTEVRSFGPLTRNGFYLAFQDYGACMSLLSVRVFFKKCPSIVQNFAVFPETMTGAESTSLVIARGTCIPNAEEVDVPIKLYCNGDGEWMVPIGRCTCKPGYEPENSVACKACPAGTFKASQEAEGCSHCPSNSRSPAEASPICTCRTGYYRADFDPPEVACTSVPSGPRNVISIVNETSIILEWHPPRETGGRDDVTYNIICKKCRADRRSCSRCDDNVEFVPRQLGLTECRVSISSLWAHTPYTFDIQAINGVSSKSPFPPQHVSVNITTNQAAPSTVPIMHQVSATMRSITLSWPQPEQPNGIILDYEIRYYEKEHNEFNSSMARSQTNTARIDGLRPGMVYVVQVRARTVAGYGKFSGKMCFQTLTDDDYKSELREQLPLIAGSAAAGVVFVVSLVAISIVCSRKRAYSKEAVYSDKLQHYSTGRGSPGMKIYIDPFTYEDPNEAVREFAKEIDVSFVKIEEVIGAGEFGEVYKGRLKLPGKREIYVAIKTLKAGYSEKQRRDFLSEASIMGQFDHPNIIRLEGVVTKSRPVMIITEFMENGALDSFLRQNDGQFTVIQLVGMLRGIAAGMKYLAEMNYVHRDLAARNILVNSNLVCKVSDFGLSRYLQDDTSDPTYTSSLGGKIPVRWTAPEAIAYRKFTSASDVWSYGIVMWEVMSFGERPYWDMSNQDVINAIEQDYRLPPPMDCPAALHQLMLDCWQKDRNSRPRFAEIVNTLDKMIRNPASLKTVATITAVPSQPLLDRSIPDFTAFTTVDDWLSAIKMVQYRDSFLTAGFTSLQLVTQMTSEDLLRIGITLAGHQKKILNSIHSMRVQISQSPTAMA

[8] = target: FGFR1 (UniProt P11362); test: as above
FGFR1, sequence (P11362 whole entry, looked up): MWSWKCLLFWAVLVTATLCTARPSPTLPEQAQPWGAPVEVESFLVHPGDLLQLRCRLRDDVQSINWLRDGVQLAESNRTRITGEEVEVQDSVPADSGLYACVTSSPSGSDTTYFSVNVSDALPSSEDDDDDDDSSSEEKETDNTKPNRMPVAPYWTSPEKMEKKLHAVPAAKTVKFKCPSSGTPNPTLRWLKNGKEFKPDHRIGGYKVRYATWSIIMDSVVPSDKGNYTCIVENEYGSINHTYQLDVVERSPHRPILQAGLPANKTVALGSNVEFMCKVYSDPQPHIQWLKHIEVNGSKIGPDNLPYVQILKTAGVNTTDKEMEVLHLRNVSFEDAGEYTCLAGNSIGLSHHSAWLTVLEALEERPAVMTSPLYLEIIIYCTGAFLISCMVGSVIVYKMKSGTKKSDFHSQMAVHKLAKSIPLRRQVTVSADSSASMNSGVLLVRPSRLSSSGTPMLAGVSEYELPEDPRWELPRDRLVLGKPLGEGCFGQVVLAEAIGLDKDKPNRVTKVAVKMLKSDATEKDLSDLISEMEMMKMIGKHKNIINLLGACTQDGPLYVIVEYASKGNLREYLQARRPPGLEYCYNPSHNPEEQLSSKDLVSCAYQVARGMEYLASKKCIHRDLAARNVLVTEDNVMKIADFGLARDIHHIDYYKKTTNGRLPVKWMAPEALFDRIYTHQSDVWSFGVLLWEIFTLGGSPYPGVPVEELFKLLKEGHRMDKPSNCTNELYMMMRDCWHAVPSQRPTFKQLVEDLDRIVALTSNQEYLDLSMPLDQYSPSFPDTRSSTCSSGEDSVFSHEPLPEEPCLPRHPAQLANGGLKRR

[9] = target: Hck (UniProt P08631); test: as above
Hck, sequence (P08631 whole entry, looked up): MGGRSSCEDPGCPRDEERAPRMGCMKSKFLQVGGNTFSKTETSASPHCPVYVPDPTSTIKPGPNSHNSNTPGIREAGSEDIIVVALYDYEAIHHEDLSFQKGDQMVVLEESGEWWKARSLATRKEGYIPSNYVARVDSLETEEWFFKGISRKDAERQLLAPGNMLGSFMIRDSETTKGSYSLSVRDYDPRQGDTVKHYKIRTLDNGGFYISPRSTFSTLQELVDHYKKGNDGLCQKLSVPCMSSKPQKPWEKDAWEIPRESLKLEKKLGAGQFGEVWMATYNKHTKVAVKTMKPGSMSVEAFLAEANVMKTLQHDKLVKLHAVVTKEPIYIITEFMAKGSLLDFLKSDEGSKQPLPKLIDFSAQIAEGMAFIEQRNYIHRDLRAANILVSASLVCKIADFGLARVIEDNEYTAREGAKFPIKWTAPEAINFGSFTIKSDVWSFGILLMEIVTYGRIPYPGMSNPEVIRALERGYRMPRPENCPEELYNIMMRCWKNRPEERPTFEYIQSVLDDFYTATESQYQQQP

[10] = test system: AncSZ; test: as above
[11] = target: EPHB2 (UniProt P29323); test: as above
[12] = target: MERTK (UniProt Q12866); test: as above
[13] = test system: Fer (mouse); test: as above
[14] = target: c-Src SH2; test: SH2 binding enrichment of the phosphorylated peptide, bacterial display (enrichment ratio); higher = better substrate or ligand; peptides without Tyr show the background
[15] = target: SHP2-C SH2; test: as above
[16] = target: Grb2 SH2 (UniProt P62993); test: as above
Grb2 SH2, sequence (P62993 whole entry, looked up, the tested form may be a part): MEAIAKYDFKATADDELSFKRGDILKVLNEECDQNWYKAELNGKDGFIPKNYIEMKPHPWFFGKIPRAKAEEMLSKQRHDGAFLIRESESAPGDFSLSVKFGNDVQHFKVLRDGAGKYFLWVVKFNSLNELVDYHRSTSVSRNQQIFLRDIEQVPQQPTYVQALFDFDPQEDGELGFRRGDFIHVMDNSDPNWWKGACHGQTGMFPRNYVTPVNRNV
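Throughout, for SH2 binding enrichment of the phosphorylated peptide, bacterial display: peptide library displayed on the E. coli surface as eCPX fusions, selected cells deep-sequenced, score is each peptide's frequency after selection divided by its frequency in the input.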
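Throughout, for phosphorylation enrichment, bacterial display: 11-residue human phosphosite peptides and single-mutation variants displayed on the E. coli surface, counted by deep sequencing, each peptide's frequency after selection divided by its frequency in the unselected input library; frequency after pTyr selection over input frequency; kinase dosed for 20-30% of maximal phosphorylation in three min.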

Fes, sequence (P07332 whole entry, looked up): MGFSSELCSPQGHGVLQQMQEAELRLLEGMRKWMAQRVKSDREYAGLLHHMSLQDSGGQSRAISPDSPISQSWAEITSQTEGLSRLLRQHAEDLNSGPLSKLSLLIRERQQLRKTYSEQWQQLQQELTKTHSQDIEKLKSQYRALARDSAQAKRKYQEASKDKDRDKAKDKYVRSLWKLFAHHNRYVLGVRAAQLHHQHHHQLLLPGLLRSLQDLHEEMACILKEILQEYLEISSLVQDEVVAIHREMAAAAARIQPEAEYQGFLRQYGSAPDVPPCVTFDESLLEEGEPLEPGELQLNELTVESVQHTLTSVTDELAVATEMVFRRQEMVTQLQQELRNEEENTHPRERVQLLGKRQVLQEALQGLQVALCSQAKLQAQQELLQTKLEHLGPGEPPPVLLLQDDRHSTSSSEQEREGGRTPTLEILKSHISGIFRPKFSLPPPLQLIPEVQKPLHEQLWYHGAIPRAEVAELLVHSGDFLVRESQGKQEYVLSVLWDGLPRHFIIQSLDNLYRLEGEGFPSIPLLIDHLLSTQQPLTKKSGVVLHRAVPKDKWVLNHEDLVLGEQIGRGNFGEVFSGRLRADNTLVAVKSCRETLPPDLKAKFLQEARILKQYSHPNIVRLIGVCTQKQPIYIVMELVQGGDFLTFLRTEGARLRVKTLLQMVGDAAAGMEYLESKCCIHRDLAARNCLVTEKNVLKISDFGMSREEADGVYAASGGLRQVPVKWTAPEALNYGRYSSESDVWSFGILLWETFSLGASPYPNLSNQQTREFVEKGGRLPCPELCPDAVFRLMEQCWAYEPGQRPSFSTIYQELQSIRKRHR

Sequence | phosphorylation enrichment [1] | phosphorylation enrichment [2] | phosphorylation enrichment [3] | phosphorylation enrichment [4] | phosphorylation enrichment [5] | phosphorylation enrichment [6] | phosphorylation enrichment [7] | phosphorylation enrichment [8] | phosphorylation enrichment [9] | phosphorylation enrichment [10] | phosphorylation enrichment [11] | phosphorylation enrichment [12] | phosphorylation enrichment [13] | SH2 binding enrichment [14] | SH2 binding enrichment [15] | SH2 binding enrichment [16]
RFLERYIYNRQ [HLA-DPB1_Y57_E62Q] | 1.06 | 0.796 | 0.768 | 0.813 | 0.805 | 0.811 | 1.04 | 0.854 | 0.786 | 1.01 | 0.907 | 0.732 | 0.655 | 0.699 | 1.2 | 0.919
SNPAFYVLEGV [INPPL1_Y987_N982S_YF] | 1.06 | 0.765 | 0.732 | 0.648 | 0.63 | 0.646 | 0.469 | 0.509 | 0.441 | 0.818 | 0.559 | 0.517 | 0.427 | 0.714 | 0.752 | 0.919
KDPPDYKYQPR [SOX9_Y172_H169P] | 0.788 | 0.663 | 0.538 | 0.51 | 0.479 | 0.747 | 0.489 | 0.461 | 0.353 | 0.837 | 0.518 | 0.375 | 0.421 | 0.503 | 1.02 | 1.02
FHLLPYTIRAM [PARS2_Y93_V95I_YF] | 0.972 | 0.708 | 1.02 | 0.5 | 0.533 | 0.621 | 0.504 | 0.547 | 0.541 | 0.825 | 0.588 | 0.373 | 0.454 | 1.55 | 1.62 | 1.66
HESEIYCKVCY [CSRP3_Y57] | 1.25 | 1.14 | 7.01 | 5.52 | 0.855 | 1.01 | 0.925 | 1.03 | 7.96 | 1.41 | 0.782 | 2.65 | 2.51 | 1.8 | 1.81 | 1.58
QITQVCGFFDE [PPP2CA_Y127_Y127C_YF] | 1.95 | 1.92 | 0.599 | 0.434 | 1.24 | 1.65 | 0.645 | 0.5 | 0.645 | 1.56 | 0.871 | 0.812 | 0.612 | 0.521 | 0.587 | 1.03
SDGGCYEQLFV [MC4R_Y41] | 1.09 | 0.991 | 1.76 | 1.32 | 0.837 | 0.871 | 0.764 | 0.663 | 2.14 | 1.69 | 0.74 | 0.806 | 9.7 | 0.68 | 0.745 | 0.853
GESQGYDIMEA [MSH2_Y863_P868A] | 0.883 | 0.744 | 0.417 | 0.456 | 0.546 | 0.577 | 0.469 | 0.536 | 0.492 | 0.85 | 0.484 | 0.42 | 0.463 | 4.32 | 0.876 | 0.778
EQKRYYNAMKK [SCN5A_Y1495_K1493R] | 0.576 | 0.605 | 0.371 | 0.457 | 0.465 | 0.447 | 0.356 | 0.348 | 0.312 | 0.586 | 0.317 | 0.547 | 0.399 | 1.19 | 0.899 | 1.05
RREQDYTNLPS [CSF1R_Y923_R921Q] | 1.75 | 0.449 | 0.446 | 0.446 | 0.951 | 0.691 | 0.573 | 1.01 | 0.492 | 0.805 | 0.468 | 0.466 | 0.532 | 0.759 | 0.821 | 0.926
AAYNKYDQERF [CDC73_Y293_R292K] | 0.762 | 0.739 | 0.398 | 0.371 | 0.454 | 0.588 | 0.364 | 0.332 | 0.299 | 0.54 | 0.335 | 0.287 | 0.419 | 0.58 | 0.863 | 0.923
LIFVSYDDWDF [GRIN2A_Y281_S278F_YF] | 4.34 | 4.29 | 1.79 | 1.02 | 2.55 | 2.77 | 2.23 | 1.38 | 1.1 | 4.68 | 2.89 | 2.03 | 17.4 | 1.01 | 1.53 | 1.68
PSPMPYACCQM [FOXL2_Y215_S217C] | 1.3 | 0.516 | 1.02 | 0.71 | 0.812 | 0.49 | 0.663 | 0.494 | 0.427 | 0.703 | 0.437 | 0.615 | 0.831 | 1.32 | 0.426 | 0.888
ISRVLYPNDNF [PYGM_Y281] | 0.748 | 0.675 | 0.477 | 0.759 | 0.472 | 0.602 | 0.438 | 0.448 | 0.395 | 0.649 | 0.524 | 0.37 | 0.422 | 0.446 | 0.626 | 0.743
DLDLTYIFPNI [PTEN_Y27_YF] | 1.34 | 2.57 | 3.89 | 6.27 | 2.77 | 1.17 | 2.03 | 3.31 | 1.76 | 4.58 | 1.15 | 3.52 | 0.56 | 0.329 | 0.547 | 0.738
SLDLSYFTTSS [EMD_Y181_P183T_YF] | 0.836 | 1.04 | 0.382 | 0.38 | 0.605 | 0.644 | 0.468 | 0.499 | 0.451 | 0.876 | 0.475 | 0.371 | 0.37 | 0.55 | 0.675 | 0.803
SGRPGYCLGTR [SCO1_Y60] | 0.874 | 0.58 | 0.41 | 0.474 | 0.563 | 0.618 | 0.488 | 0.406 | 0.426 | 0.735 | 0.51 | 0.462 | 0.407 | 0.77 | 0.891 | 1.12
